Results: the supplement of paper PMC9170038

Tested on: MS2 coat protein
Assay: apparent KD of MS2 coat protein; higher = weaker reporter binding
Conditions: Eterna round: R107
Summary of the method: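 Designed RNA switches were made by on-chip transcription from Illumina sequencing clusters and then titrated with SNAP-549-labelled MS2 coat protein. Twofold steps ran from 0.7 or 1.5 nM to 3 µM, each lasting 0.8–1.5 h early and 10–20 min late, in 100 mM Tris-HCl pH 7.5, 80 mM KCl, 4 mM MgCl2, without or with constant ligand. Apparent KD is the per-design median of normalised cluster binding-curve fits.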

[1] = input ligand: theophylline 20 uM
[2] = input ligand: tryptophan 2.4 mM
[3] = input ligand: theophylline 2 mM

Sequence	apparent KD of MS2 coat protein (input ligand: arginine 13.2 mM)	apparent KD of MS2 coat protein [1]	apparent KD of MS2 coat protein [2]	apparent KD of MS2 coat protein [3]	apparent KD of MS2 coat protein (input ligand: none)
CUAGGAAACUAGUAAGGGUGGUAUAGAGAUACCAGUACAGAAAUGUACCCUUGGCAGCUCACUGCAACAUGAGGAUCACCCAUGU [Ex Theophylline A 11]	29.9 nM	41.6 nM	26.1 nM	–	–
CUAUGUAUAUAUGCGAAAGCUACGUGUUGACGAGGACCGGUACGGCCGCCACUCGACAUGAGGAUCACCCAUGUAAUAUAUAUAG [BMP_BFE]	102 nM	173 nM	–	300 nM	–
CUCCCGUGGUCGGCCGCCACUGGAGGCUUUGCGCGACAUGAGGAUCACCCAUGUGUGCCCGGCGUCAGGACCGGGAUCGCGUGAG [#1 Same State - Tryptophan B Attempt #13 (HarryS)]	11.7 nM	16 nM	11.5 nM	17.7 nM	14.6 nM
CUCGGGUUAUCAGAUACCAGACUAAAAUUUACAUGAGGAUCACCCAUGUAAUGGGUGAUAGUCCCUUGGCAGCUGUUAUGUUUAA [JR_ExcTheophyB_Sub001]	65 nM	85.4 nM	70.8 nM	–	–
CUGCCAUGCAGAGAUACCAGUGAGCUCAGAACAUGAGGAUCACCCAUGUACGCCGCCGAUCACCCUUGGCAGCUCUGCAUGGCAG [%*#)(]	12.2 nM	14.1 nM	11.6 nM	11.4 nM	12.4 nM
CUGCCAUGCAGAGAUACCAGUGCGCUCAGCACAUGAGGAUCACCCAUGUUGGCUGCCGAUCACCCUUGGCAGCUCUGCAUGGCAG [#04 Same State - Theophylline B]	10.9 nM	12.5 nM	8.66 nM	–	–
CUGUUUACAUGAGCCCGUCAUAUAUACGAUACCAGUUAAAGAUGAAACCCUUGGCAGCGUAGGACAUGAGGAUCACCCAUGUGCC [theeternabot_exclusion_MS2_Theo_A_17]	15.6 nM	21.1 nM	18.6 nM	–	–
GAAACGUAGGUGGAGCGGUGAAAUGGCGAUACCAGCGUGGAAACAUGCCCUUGGCAGCGUUAGAACAUGAGGAUCACCCAUGUUU [#22 Exclusion-TheophyllineA]	12.9 nM	15.4 nM	14.9 nM	–	–
GAACAGUCGGACAUGAGGAUCACCCAUGUGCGAGGACCGGUACGGCCGCCACUCGACAAGGGCGGUCCCGAAGCGAACAUACGCG [Cecearla]	14.9 nM	43.4 nM	–	34.4 nM	–
GAACAUAAGGAUACUAUAAUAAGUACAGAAGGAGCGAGCGGAAGCUCAGGUAGGUCGCUGGGUAACAUGAGGAUCACCCAUGUUG [SSArg A #14 Road to perfection1]	23.1 nM	37 nM	15.6 nM	37 nM	21.4 nM
GAAGGAGUUAUGGGUACUCCUUCACUGGAAGGAGCGAGCGAAAGCUCAGGUAGGUCGCCAGAAACAUGAGGAUCACCCAUGUAAU [(A)''-(M)'-(A)'-(Arg1)-(Arg2)-(M1)-(M2)_Design6]	30.3 nM	59.5 nM	41.3 nM	65.3 nM	45.7 nM
GACAGACGAGGAAGGAGCGACAUGAGGAUCACCCAUGUUGCGGGUUUAAGGUGAACUAAGUGUCAGGUAGGUCGCCUCGCUUUUA [Diatbeat]	35.7 nM	56.5 nM	36.3 nM	49.3 nM	41.2 nM
GACAUGAGGAUCACCCAUGUUUGCUAUGAAGGAGCGUCGGAAAUGACAGGUAGGUCGCAUAGUAGACCUUGUAUUUCGUGUGUUU [#01 Exclusion - Arginine A]	10.8 nM	14.5 nM	12 nM	11.2 nM	10.8 nM
GACAUUAACUGAAGGAGCGAGGUAGAACGGGAUGAGCAUACAUGAGGAUCACCCAUGUGGCCUCAGGUAGGUCGCAGAUGAGAUU [Exclusion Arginine B GF25]	83.4 nM	201 nM	179 nM	203 nM	175 nM
GACCGGUUAUAGCGCGAUUGUCUUGUGGAAGGAGCGCAGAGGGCUGCAGGUAGGUCGCCACAUGAGGAUCACCCAUGUCAGGAAA [Biraesge]	28.1 nM	32.2 nM	19.7 nM	35.5 nM	19.2 nM
GAGACAUGAGGAUCACCCAUGUUAGAUGAUACCAGUUAGAGAAGGAGCCCUUGGCAGCGUAAAUCUAGAGCCUAUGACGACAUGU [ss-theoA-1]	16.2 nM	15.8 nM	13.2 nM	–	–
GAGCUGAUGUAGAGAUUAUAUAAAAGAGAUACCAGUACAGAAAUGUACCCUUGGCAGCUCAACUUUACAUGAGGAUCACCCAUGU [Ex Theophylline A 19]	15.4 nM	15.8 nM	13.9 nM	–	–
GAGUCCACGGCGGCCGCCACUCGCGGCGCCACAUGGCGCCGGGACAUGAGGAUCACCCAUGUCCCGAGGACCGGGCCGAUCCUUA [Same State Typrtophan B GF3]	11.2 nM	26.6 nM	12.9 nM	31.5 nM	21 nM
GAUACUAUGAAAGUAGUAUCUACGUGUUGACGAGGACCGGUACGGCCGCCACUCGACAUGAGGAUCACCCAUGUAUAGAAUAUGU [TrypA_2]	25.1 nM	39.2 nM	–	31.9 nM	–
